Reference: paper PMC4299515

Legend:
[1] = target: full-length HP1β (heterochromatin protein 1 beta) (UniProt P83917); assay: AUC; sedimentation velocity, c(s) distribution, 8–30 μM protein, physiological ionic strength; no larger complexes than the dimer up to 30 μM
[2] = target: full-length HP1β (heterochromatin protein 1 beta) (UniProt P83917); assay: AUC; sedimentation velocity at lower concentrations (two peaks in c(s)); KD from the relative molar fractions of monomer and dimer; dimer to monomers; physiological ionic strength
[3] = target: isolated chromoshadow-domain (CSD) of HP1β; assay: AUC; sedimentation velocity, c(s) distribution, 8–30 μM protein, physiological ionic strength; no larger complexes than the dimer up to 30 μM

Sequence of full-length HP1β (heterochromatin protein 1 beta), P83917 1-185 (natural protein; other documents disagree on this pair) (P83917 whole entry): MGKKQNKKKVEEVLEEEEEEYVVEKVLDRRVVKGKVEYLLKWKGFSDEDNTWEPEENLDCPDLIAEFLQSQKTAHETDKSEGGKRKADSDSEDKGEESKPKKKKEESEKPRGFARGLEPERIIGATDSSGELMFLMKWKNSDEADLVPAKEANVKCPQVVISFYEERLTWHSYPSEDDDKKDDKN
Sequence of isolated chromoshadow-domain (CSD) of HP1β (domain or fragment) (P83916 whole entry, the tested form may be a part): as the sequence (P83917 whole entry) above

Substance | stoichiometry N [1] | Kd [2] [µM] | stoichiometry N [3]
full-length HP1β (heterochromatin protein 1 beta), P83917 1-185 (natural protein; other documents disagree on this pair) | 2 | 1 to 2 | 
isolated chromoshadow-domain (CSD) of HP1β (domain or fragment) |  |  | 2
